The values below come from publication PMC9372627.

One assay deals with Trio_(1284-2638) (human) (UniProt O75962).

Gαq·GDP·AlF4^-, sequence (P21279 whole entry): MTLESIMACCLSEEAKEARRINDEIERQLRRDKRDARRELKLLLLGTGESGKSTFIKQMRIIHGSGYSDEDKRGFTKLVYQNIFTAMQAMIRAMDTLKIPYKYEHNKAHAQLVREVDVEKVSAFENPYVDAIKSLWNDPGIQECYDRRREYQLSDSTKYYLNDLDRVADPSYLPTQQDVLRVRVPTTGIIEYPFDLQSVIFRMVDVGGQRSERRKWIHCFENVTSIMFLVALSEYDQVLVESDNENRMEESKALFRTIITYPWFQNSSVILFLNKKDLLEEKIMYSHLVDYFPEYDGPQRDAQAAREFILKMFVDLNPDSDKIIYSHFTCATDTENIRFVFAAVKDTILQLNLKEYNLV

Regarding “Gαq·GDP·AlF4^- (from UniProt P21279 1-359) (natural protein)”, the RhoA GEF activity (FRET-based nucleotide exchange assay with MANT-GTP), enhancement by 200 nM Gαq·GDP·AlF4^- in the assay with TrioC (human) and with Trio_(1284-2638) (human) was 2.5 fold in each case.
